{"source": "paper doi:10.1101/2020.03.02.972281", "about": "(bioRxiv, 2020)", "molecules": {"B1": {"name": "human CD14 (natural protein, UniProt P08571 20-345, looked up)", "chain": "TTPEPCELDDEDFRCVCNFSEPQPDWSEAFQCVSAVEVEIHAGGLNLEPFLKRVDADADPRQYADTVKALRVRRLTVGAAQVPAQLLVGALRVLAYSRLKELTLEDLKITGTMPPLPLEATGLALSSLRLRNVSWATGRSWLAELQQWLKPGLKVLSIAQAHSPAFSCEQVRAFPALTSLDLSDNPGLGERGLMAALCPHKFPAIQNLALRNTGMETPTGVCAALAAAGVQPHSLDLSHNSLRATVNPSAPRCMWSSALNSLNLSFAGLEQVPKGLPAKLRVLDLSCNRLNRAPQPDELPEVDNLTLDGNPFLVPGTALPHEGSMN"}}, "key": {"transferrin [1]": {"biological_target": "T1, transferrin (human, UniProt P02787 20-698)", "T1 sequence (P02787 20-698)": "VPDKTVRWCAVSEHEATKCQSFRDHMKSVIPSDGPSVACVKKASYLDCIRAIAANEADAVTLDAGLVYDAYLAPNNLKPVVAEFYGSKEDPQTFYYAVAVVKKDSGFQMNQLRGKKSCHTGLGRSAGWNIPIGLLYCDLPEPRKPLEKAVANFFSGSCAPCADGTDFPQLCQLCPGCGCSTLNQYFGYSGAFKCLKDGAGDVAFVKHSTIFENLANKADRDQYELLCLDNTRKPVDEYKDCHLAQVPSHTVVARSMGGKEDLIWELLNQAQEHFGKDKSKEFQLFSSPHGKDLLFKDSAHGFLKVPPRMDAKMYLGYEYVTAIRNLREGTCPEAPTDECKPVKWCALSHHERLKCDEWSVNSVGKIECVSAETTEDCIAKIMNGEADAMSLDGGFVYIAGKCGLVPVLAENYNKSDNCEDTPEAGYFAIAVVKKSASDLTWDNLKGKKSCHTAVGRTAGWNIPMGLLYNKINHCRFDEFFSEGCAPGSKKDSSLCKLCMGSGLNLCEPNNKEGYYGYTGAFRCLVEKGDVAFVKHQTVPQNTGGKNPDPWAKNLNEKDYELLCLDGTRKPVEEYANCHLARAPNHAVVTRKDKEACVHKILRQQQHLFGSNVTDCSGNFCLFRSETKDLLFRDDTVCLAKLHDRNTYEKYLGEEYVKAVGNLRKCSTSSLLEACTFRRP", "assay": "SPR"}, "transferrin [2]": {"biological_target": "T1, transferrin", "assay": "native gel or EMSA"}}, "data": [{"molecule": "CD14 (SEA518Mu-48T, Uscn) (from UniProt P08571 20-345) (natural protein)", "values": [{"measurement": "Kd", "setting": "transferrin [1]", "result": 14, "unit": "nM"}, {"measurement": "koff", "setting": "transferrin [1]", "result": 0.00033, "unit": "s⁻¹"}, {"measurement": "kon", "setting": "transferrin [1]", "result": 24000, "unit": "M⁻¹ s⁻¹"}]}, {"molecule": "B1", "values": [{"measurement": "binding result", "setting": "transferrin [2]", "result": "binds"}]}, {"molecule": "ELDDEDFRCVCNFSEPQPDWSEAFQCVSAVEVEIHAGGLN", "note": "[LPS binding region of CD14 N-terminus (CD14N)]", "values": [{"measurement": "binding result", "setting": "transferrin [1]", "result": "binds"}]}]}
